Assay results reported in the supplement of paper PMC9170038.

Tested on: K4 kissing-loop RNA reporter
Experiment: apparent KD of K4 kissing-loop reporter; higher = weaker reporter binding
Conditions: Eterna round: R107
Method: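 RNA-MaP round R107: designed RNA switches with theophylline, tryptophan, arginine or FMN aptamers are transcribed on-chip within common flanks. They are titrated with a labelled K4 kissing-loop RNA reporter in RNA-MaP buffer (100 mM Tris pH 7.5, 80 mM KCl, 4 mM MgCl2), without ligand or with the indicated ligand. Median apparent KD per design.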

[1] = input ligand: theophylline 20 uM
[2] = input ligand: tryptophan 2.4 mM
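Further: bound reporter read as fluorescence of individual clusters on recovered sequencing chips by microscopy, with normalized cluster intensities fitted with a binding model.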

| Sequence | apparent KD of K4 kissing-loop reporter (input ligand: FMN 200 uM) [nM] | apparent KD of K4 kissing-loop reporter (input ligand: arginine 13.2 mM) [nM] | apparent KD of K4 kissing-loop reporter (input ligand: none) [nM] | apparent KD of K4 kissing-loop reporter [1] [nM] | apparent KD of K4 kissing-loop reporter [2] [nM] |
| --- | --- | --- | --- | --- | --- |
| GCUACUGCUGAAGGAUAUAUCAAUAGAGUGAUGUUCUAUGUCGGUAGCCCGAAAGGGCUACCGACGAUAGAAGGUCAGCAGUAGC | 113 | 1020 | 723 | 1070 | 983 |
| UGUGUUUACCUGACUCAGUGAUGUUGAGAAGGAGCGUGGGAAACCACAGGUAGGUCGCUCAACCUAAAUUCAGGUGAGCACUAAA | 327 | 219 | 399 | 303 | 231 |
| UACUUAUAUAUCAACUUAAAUUAUUCAGAAGGAGCGUGAUCAUUCACAGGUAGGUCGCUGAACUAGUGAUGUUAGUUUUAAUUUU [JR_Nu_ExcArginiA_Sub023] | 67.9 | 146 | 81.3 | 126 | 61.5 |
| AGUGCCGAGUGUGAUACCAGCUUCAUGCAGUGAUGUUGCACACGAGUGAUGUUCGUCCGAGGCCCUUGGCAGCGCAGUCGCUCGA [Same State Theophylline B Gf 30] | 751 | 807 | 885 | 711 | 670 |
| AUGUAUAUCUCAGGAUAUAUAUGUGUGUGGUGUAUACAUAGUGAUGUUGUGUAUAUCCACAUAUGUAUAGAAGGGAGAUGUGCAU [Skye_SS_FMNB] | 76.3 | 73.5 | 73.9 | 66 | 72 |
| GCCUGGGCCCGAAGGAGCGCCGUGACAGGUUACUGCAUUGAGCAGUGAUGUUGCUCAAUCUGGCAGGUAGGUCGCGGGCCCAGGC | 120 | 100 | 102 | 108 | 93.1 |
| CGUCGGUAGUGAUGUUGCCACGACGCUUUUAAGGAUAUAAGCUAAGUUAGAAGGUAAGAGAGUCAGCCCGGUGGCCUUAGAGUAG [theeternabot_exclusion_KL_FMN_A_17] | 257 | 186 | 195 | 162 | 151 |
| GAGAGCCCUGGAGGAUAUGAGUCUAGUGAUGUUAGGCGGUCCAUGCGCGUGGCGCGUUAUGCCCUUUUAGAAGGCCAGGGCUCUC [#2 Exclusion - FMN B Attempt #18 (HarryS)] | 109 | 68.5 | 88.5 | 85.2 | 89.7 |
| CCAUUCUUUUACGAUACCAGUCUAAUAUAUUUAAUCAAAACCCUCGCCGAGUGAUGUUCGGACCCUUGGCAGCGUCUGCGAGAGG [ettyxtkmullin] | 606 | 472 | 758 | 603 | 495 |
| AUUAAUUUCAGAGGAUAUGCUUAAUUGAUUAAAUAUAAUCUAUUAUGCAGUGAUGUUGCAUUUUUUGCAGAAGGCUGAUUUAUAA [JR_SSFMNB_Sub017] | 136 | 500 | 506 | 485 | 385 |
| AAGCAGUCACGCGAAGCCAUCGAAGAUGGACGAGGACCGGUACGGCCGCCACUCGGAGUGAUGUUCCGAAGACUGCAAAAUAAAA | 515 | 499 | 420 | 599 | 363 |
| UCCUACGAGGUAACGUGGAUAUCUCGUUGCAAGGAUAUCUGGAAACAGAGAAGGUGCUACAUUAUCGGCAGUGAUGUUGCUGACC | 687 | 655 | 1010 | 759 | 529 |
| UGAUACCAGACGGCCGCCACUGCACCAGUCAAUGACUGAGUGUAGUAAUGCUCAGUGAUGUUGAGUAGGACCGGGUCUGGUAUCU [Mod of Eli's TrypBX 8 v1] | 141 | 122 | 128 | 122 | 130 |
| UACAGGGCGAGUGAUGUUUGCUCAUGUGAUACCAGUGCCAUCCAACACCCUUGGCAGCAUGCGGGCAGUGAUGUUGUCCUUGGUU [Exclusion Theophylline A GF11] | 294 | 223 | 280 | 278 | 249 |
| CAUCUCAUGAAAUGAGAUGUCAUCAGUGAAGGAGCGCUAUUAGCAGCAGGUAGGUCGCACUGAAGCGGAGUGAUGUUCUGUAUGA [Arg A SS t3] | 170 | 220 | 293 | 214 | 150 |
| AAAGAUCUUCUAGAAACUAGAAGAUCAAGAGAGGAUAUCCGAAUUCGGAGAAGGCUCACUAAGUGAUGUUUGGAGGGAAUCCCAA [AK1 SS FMN A] | 1250 | 805 | 1670 | 1290 | 1360 |
| AAGGGCGGAACUUCCUCGCCGGAUAGAGAUACCAGCCCAGCAAAGGGCCCUUGGCAGCUCACUGACCUCAGUGAUGUUGAGGUUC [Riesrevere] | 345 | 241 | 301 | 216 | 296 |
| UGUAUGUGAUUUGAUACCAGACCAUCUUGUGAGAAGUGAGUGAUGUUUAUUUUGGUUUGGGUCCCUUGGCAGCAAAUCGCAUACU [KL-SSTheoB23] | 777 | 560 | 826 | 619 | 738 |
| AAGUGUUCUAGUGAUACCAGACAUUUCAAUUACAUUAAUAUAGCUAAGUGAUGUUUAGCAGUCCCUUGGCAGCACUAUUUCACUA [JR_SSTheophyB_Sub016] | 130 | 144 | 135 | 149 | 131 |
| AAUAAGCAUGGAAGGAGCGUAGUCCAGUGAUGUUGGAGUUAAAUACCAGUGAUGUUGGUUAUACAGGUAGGUCGCCAUAAAGCUU [Exclusion Arginine B Gf 6] | 92.4 | 64.8 | 89.3 | 83.2 | 75.4 |
| GUGCGCGGUGCGGCCGCCACUCGCAUGAGAGUGAUGUUCUCGGGACGGACGGAAGUCCGUCAUGUGAGGACCGGGCAUGGCUGCG [#2 Same State - Tryptophan B Attempt #10 (HarryS)] | 894 | 344 | 416 | 497 | 453 |

| Sequence | apparent KD of K4 kissing-loop reporter (input ligand: FMN 200 uM) [nM] | apparent KD of K4 kissing-loop reporter (input ligand: arginine 13.2 mM) [nM] | apparent KD of K4 kissing-loop reporter (input ligand: none) [nM] | apparent KD of K4 kissing-loop reporter [1] [nM] | apparent KD of K4 kissing-loop reporter [2] [nM] |
| --- | --- | --- | --- | --- | --- |
| AGGAUGUAGUGAUGUUAUAUAAGAAGUAAACGAGGACCGGUACGGCCGCCACUCGAAGCGGCUACUAGCGCGUUGCGAGGUGUGC [ExTryptoA.Ce] | 492 | 384 | 581 | 656 | 378 |
| AUGCGCGCGGCGGCCGCCACUCGCAUGAGAGUGAUGUUCUCGCCGGGCCCGCAAGGGCCCGGUGUGAGGACCGGGCCGGGCUGCG [#2 Same State - Tryptophan B Attempt #18 (HarryS)] | 632 | 0.441 | 257 | 193 | 136 |
| ACGCUGGAUGAAUAACAUCUAGCGAAAAUUCGAGGACCGGUACGGCCGCCACUCGAGCUAACUGCGAGUGAUGUUCGAUAAUAAA [Mat - Mod of OpenEnded 3 - D6] | 196 | 374 | 309 | 497 | 72.1 |
| ACUAUCAUUACGCAUGGAGUGAUGUUUCAGCGAGGACCGGUACGGCCGCCACUCGUUACGUGGUUAGAGCCAAUGUUCGAGAAGC [theeternabot_exclusion_KL_Trp_A_39] | 1170 | 832 | 927 | 1270 | 520 |
| AAGCAGUCACUCGAAUCCAUCGAAGAUGGGCGAGGACCGGUACGGCCGCCACUCGGAGUGAUGUUCCGCAGACUGCAAAAUAAAA | 636 | 402 | 863 | 580 | 478 |
| AAACGUUGGUGCGAUACCAGCUGCUCGGAAACGAGCUUGCUGGAGUGAUGUUCCAGGAAAAGCCCUUGGCAGCGCACCGACGAAA [MAT - Same State Theophlline B - Mod of Eli - D27] | 856 | 561 | 2040 | 738 | 715 |
| CCUAUCUCAUACGAUACCAGUGAAUUUAUGUUUAUUAGCAGUGAUGUUGCGUUCCAAGUACACCCUUGGCAGCGUAUGGGAUAGG [Ex Theophylline B K4 24] | 139 | 168 | 147 | 143 | 113 |
| AGGAUCCGUCGACAAAAGUCGACAUAAUCCGAGGAUAUGACGAAAGUCAGAAGGUGGACAUAAGUCCAGUGAUGUUGGAGGAUCC [FmnA 17 #SwitchBubble #K4Late] | 847 | 218 | 441 | 420 | 193 |
| UGGAGUUGACGAAAAGUCAACUCCAGAGAAGGAGCGGACGAAAGUCCAGGUAGGUCGCUCACUACCAGUGAUGUUGGUACUUGAA | 220 | 335 | 255 | 449 | 218 |
| UGAUACCAGACGGCCGCCACUUCCGCAAGUCAAAGACUUGCCAAGGGAAUCGUCCAGUGAUGUUGGAGGACCGGGUCUGGUAUCU [FiskerMod 4 - Jieux - Exclusion - Tryptophan B] | 939 | 516 | 1220 | 525 | 587 |
| AUUAAUAACUGAGGAUAUCGUUUUACUGUAGUGAUGUUACAGAAAAUGCACAUUAUAAUUUCUAUUCGAGAAGGCAGAAUAAUUA [JR_ExcFMNB_Sub013] | 110 | 75.5 | 74.5 | 74.1 | 65.4 |
| UGUAUGUGAUUUGAUACCAGACCAGCUGGUGGUAUAUGAGUGAUGUUCAUGUUGGUGUGGGUCCCUUGGCAGCAAAUCGCAUACU [KL-SSTheoB9] | 242 | 161 | 237 | 164 | 183 |
| UUCUACGUGCAAGGAUAUCCAUACGCUGCUAAGCGGGUAGCGAUAUAUGGAGUGAUGUUCCAUGUAGGAGAAGGUGCACUGUCCU [Rieser] | 144 | 295 | 348 | 253 | 242 |
| CUGGGUUGACGAAAAGUCAACAAAUGAGAAGGAGCGCACGAAAGUGCAGGUAGGUCGCUCAAUCCAGUGAUGUUGGAUCAUCCAG [#SwitchBubble 12 #K4Late] | 571 | 601 | 649 | 638 | 472 |
| AGGCACGAGCAAGGAUAUCGAGUAGAGUGAUGUUCUGCCUGGGUUGGCUCGUAAGGGCCUUCCCAGCGAGAAGGUGCUCGUGCCU [#2 Same State - FMN A Attempt #15 (HarryS)] | 221 | 632 | 877 | 581 | 757 |
| CGCCGCAAGGCGGUCCUGCCCACUCCGGAAGGAGCGCCCGCAAGGGCAGGUAGGUCGCCGGAGUGAUGUUCCGGUGGCAGGACCG [#2 Exclusion - Arginine A Attempt #4 (Inspired by Omei)] | 477 | 112 | 422 | 264 | 245 |
| UGUGAGCUGUCGACAAAAGUCGACUAAAAUGAGGAUAUGACGAAAGUCAGAAGGCAUCAAUAAUGGAGUGAUGUUCCUGCUCACU [FmnA 9 U30+A56] | 373 | 432 | 809 | 790 | 763 |
| UAUUUAAUGUCAGGAUAUCGUAUACGAGUGAUGUUCGUAUUUCUACUAUAGAUUAUUUAAAUUUUUCGAGAAGGGACAAUAUUUA [KL-SSFMN-B4] | 177 | 208 | 193 | 186 | 158 |
| UGUCAUUGGUCGGCCGCCACUUCAUAUAGAGUGAUGUUCUGAAAGACGGAUCGAAAGAUCUGUCGAAGGACCGGGACCGAUGACU [FiskerMod 12 - Jieux - Same State - Tryptophan B] | 1100 | 810 | 1640 | 1100 | 268 |
| GGAGUUACCUGGGAUACCAGUCGGAGUCCCAGAGCUCGGAGUGAUGUUCUGGGAUGUUUCGGCCCUUGGCAGCUCUGGGACUCCC [#2 Exclusion - Theophylline B Attempt #9 (HarryS)] | 893 | 597 | 776 | 726 | 780 |
| UUCUAACACACCGAUACCAGAGCCCAGUGAUGUUGGGCCUAGGUCGGAUGCUCACUGACGCUCCCUUGGCAGCGGUGGGCUAACC [Arreisve] | 127 | 112 | 116 | 110 | 114 |
